{"source": "paper PMC9935730", "target": "Recombinant full-length Pin1, N-terminally His6-tagged (human) (UniProt Q13526)", "experiment": "SDS-PAGE and western blot; fractions eluted from the HisTrapHP column with imidazole, 15% SDS-PAGE, HRP conjugated anti-His antibody; second band seen in the more concentrated fractions", "data": [{"substance": "Recombinant full-length Pin1, N-terminally His6-tagged (from UniProt Q13526 1-163) (enzyme)", "values": [{"measurement": "stoichiometry N", "result": 2}]}]}
